# Target: the molecule itself
# Assay: SEC + native gel or EMSA + other: mass spectrometry; Superdex 75 26/60, 50 mM Tris-HCl pH 7.5, 50 mM NaCl, 10 mM DTT, 4 °C; two separated peaks; native gel electrophoresis and mass spectrometry not shown
protein,measurement,value
"human soluble catechol O-methyltransferase (enzyme, UniProt P21964-2 1-221, looked up, Catechol O-methyltransferase, human, soluble isoform (S-COMT), EC 2.1.1.6; valine at the polymorphic position 108; 233 residues with the 12-residue tag, so 221 residues of S-COMT; Q belongs to the ENLYFQG site; 2H,15N,13C-labelled protein; Val108 allele; also called S-COMT; human S-COMT; source: E. coli BL21(DE3), pET21a, purified (His-Trap Ni-Sepharose, Superdex 75 size exclusion)) QGDTKEQRILNHVLQHAEPGNAQSVLEAIDTYCEQKEWAMNVGDKKGKIVDAVIQEHQPSVLLELGAYCGYSAVRMARLLSPGARLITIEINPDCAAITQRMVDFAGVKDKVTLVVGASQDIIPQLKKKYDVDTLDMVFLDHWKDRYLPDTLLLEECGLLRKGTVLLADNVICPGAPDFLAHVRGSSCFECTHYQSFLEYREVVDGLEKAIYKGPGSEAGP",stoichiometry N,2

# Source: publication PMC5343089, “^1H, ^15N, ^13C backbone resonance assignments of human soluble catechol O-methyltransferase in complex with S-adenosyl-L-methionine and 3,5-dinitrocatechol” (Biomolecular Nmr Assignments, 2016)
